In experiment [1] the target is human ABCA1 transporter on stably transfected HeLa cells (human) (UniProt O95477). In words: two-step sequential competitive binding on ABCA1-transfected HeLa cells, competitor at 8 µM, tracer 125I-L-37pA.
Experiment [2] has the same target. In words: direct binding of 125I-L-37pA at 1 µg/ml to ABCA1-transfected HeLa cells, 1 hour, 4 C. Set-up: unit not given here.
Experiment [3] has the same target. The experiment is described as follows: cell-based or functional assay.

“And” between values parts separate entries of the source, which are not always exact repeats. Equal entries are not always repeated.

UniProt O95477, sequence (O95477 whole entry): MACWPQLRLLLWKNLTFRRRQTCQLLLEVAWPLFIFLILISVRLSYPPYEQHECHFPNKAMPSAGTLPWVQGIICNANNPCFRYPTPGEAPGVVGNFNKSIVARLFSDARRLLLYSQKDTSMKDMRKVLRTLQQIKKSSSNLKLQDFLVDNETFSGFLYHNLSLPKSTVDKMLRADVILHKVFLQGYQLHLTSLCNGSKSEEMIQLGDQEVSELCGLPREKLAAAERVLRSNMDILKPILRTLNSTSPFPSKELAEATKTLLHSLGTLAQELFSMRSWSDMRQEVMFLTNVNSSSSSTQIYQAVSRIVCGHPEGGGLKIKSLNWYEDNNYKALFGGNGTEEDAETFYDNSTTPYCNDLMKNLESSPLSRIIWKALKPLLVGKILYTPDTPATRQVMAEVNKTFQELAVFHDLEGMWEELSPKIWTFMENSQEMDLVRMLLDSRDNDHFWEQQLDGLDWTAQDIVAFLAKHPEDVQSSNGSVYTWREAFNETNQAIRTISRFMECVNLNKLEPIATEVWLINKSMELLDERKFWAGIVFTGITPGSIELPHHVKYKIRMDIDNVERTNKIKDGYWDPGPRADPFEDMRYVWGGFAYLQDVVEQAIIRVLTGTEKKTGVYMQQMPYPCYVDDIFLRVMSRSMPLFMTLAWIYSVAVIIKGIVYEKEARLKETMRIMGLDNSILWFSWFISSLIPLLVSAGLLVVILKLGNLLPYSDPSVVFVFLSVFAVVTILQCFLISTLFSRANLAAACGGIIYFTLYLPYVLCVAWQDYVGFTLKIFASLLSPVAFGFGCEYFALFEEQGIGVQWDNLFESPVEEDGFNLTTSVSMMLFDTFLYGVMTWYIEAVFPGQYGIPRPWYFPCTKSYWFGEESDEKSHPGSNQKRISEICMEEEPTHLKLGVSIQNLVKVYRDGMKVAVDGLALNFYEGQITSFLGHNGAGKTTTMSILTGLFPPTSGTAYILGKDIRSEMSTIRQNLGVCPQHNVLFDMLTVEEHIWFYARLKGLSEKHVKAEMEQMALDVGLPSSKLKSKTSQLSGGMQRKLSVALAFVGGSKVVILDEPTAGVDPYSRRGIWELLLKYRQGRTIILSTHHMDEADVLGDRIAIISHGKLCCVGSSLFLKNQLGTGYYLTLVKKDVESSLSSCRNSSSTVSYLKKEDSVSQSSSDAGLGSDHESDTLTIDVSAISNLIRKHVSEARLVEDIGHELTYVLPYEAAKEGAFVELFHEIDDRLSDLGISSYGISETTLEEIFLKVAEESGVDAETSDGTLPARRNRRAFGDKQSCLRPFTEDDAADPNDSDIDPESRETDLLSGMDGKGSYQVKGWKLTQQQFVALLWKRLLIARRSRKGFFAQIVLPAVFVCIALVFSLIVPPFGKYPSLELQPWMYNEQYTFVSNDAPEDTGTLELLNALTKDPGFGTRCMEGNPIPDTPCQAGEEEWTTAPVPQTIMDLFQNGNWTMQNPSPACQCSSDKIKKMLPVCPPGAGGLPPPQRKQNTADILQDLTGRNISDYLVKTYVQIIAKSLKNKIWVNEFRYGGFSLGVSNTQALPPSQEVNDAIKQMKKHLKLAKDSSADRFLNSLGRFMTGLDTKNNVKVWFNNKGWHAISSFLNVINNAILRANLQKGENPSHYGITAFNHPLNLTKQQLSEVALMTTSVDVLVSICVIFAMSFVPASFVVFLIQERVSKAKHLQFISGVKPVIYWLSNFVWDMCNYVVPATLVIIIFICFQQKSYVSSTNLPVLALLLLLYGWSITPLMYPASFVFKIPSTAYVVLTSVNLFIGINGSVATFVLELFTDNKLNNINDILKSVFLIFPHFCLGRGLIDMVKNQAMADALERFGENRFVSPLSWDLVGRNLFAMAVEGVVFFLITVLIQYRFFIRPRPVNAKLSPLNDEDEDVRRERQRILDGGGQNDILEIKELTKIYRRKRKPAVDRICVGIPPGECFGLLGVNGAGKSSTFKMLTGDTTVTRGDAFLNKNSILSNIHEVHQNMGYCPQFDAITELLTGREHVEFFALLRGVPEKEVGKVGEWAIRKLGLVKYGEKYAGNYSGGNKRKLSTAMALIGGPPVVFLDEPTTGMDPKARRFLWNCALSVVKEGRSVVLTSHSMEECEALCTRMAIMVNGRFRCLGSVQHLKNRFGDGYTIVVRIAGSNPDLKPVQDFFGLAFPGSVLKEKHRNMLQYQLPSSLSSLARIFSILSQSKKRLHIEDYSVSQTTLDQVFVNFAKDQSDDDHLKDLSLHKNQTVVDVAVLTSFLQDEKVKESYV

With DWLKAFYDKVAEKLKEAFPDWLKAFYDKVAEKLKEAF [L-37pA peptide], the percent of labeled L-37pA binding blocked in experiment [1] is 40%. In experiment [2], this molecule displayed a cell-bound radiolabeled peptide in the absence of a competitor of 35. Further, in experiment [3], the cholesterol and phospholipid efflux, ABCA1 cells against control cells, 18 hours was 2 fold and 4 fold; the concentration at which lipid efflux began to show saturation came out at 2 µM.

(Values after patent US20110033518A1.)
